The numbers were not newly measured in paper PMC9405863, which cites them from elsewhere.

In the data set the target is Calmodulin (Homo sapiens) (UniProt P0DP23). Put plainly: ITC. A general note: ITC needs no label: the signal is the heat of the interaction.

In the case of “STIM1 K-rich domain (from UniProt Q13586)”, the Kd is 800 nM.

Regarding “STIM2 K-rich domain (from UniProt Q9P246)”, the equilibrium dissociation constant (Kd) was 900 nM.

A word on the Kd: it is the equilibrium constant for the complex coming apart.
